From article PMC2063832

Test system: La protein (Homo sapiens)
Assay: immunoprecipitation

Q: For EBER1 wild type, which binding signal (reference (wild type)) is on record?
A: 1
